Source: patent publication US9494574B2, “T-cell death-inducing epitopes” (AbGenomics Cooperatief U.A., priority 2004, dated 2016)
“Also recorded” adds a separate entry of the source.

B1: m128-9F9: mouse monoclonal antibody from hybridoma raised against Concanovalin A-activated human T-cells; induces T-cell apoptosis (antibody, V domains shown)
VL: DVLMTQTPLSLPVSLGDQASISCRSSQSIVNSNGNTYLEWYLQKPGQSPKLLIYKVSNRFSGVPDRFSGSGSGTDFTLKISRVEAEDLGVYYCFQGSHVPWTFGGGTKLEIK
VH: EVQLVETGGGLVQPKGSLKLSCAASGFTFNTNAMNWVRQAPGKGLEWVARIRSKSNNYATYYADSVKDRFTISRDDTQSMIYLQMNNLKTEDTGMYYCVRGGSYWYFDVWGAGTTVTVSS
B2: m152-15A7: mouse monoclonal antibody from hybridoma raised against Concanovalin A-activated human T-cells; induces T-cell apoptosis (antibody, V domains shown)
VL: DILMTQTPLSLPVSLGDQASISCRSSQSIVHNDGNTYFEWYLQKPGQSPKLLIYKVSNRFSGVPDRFSGSGSGTHFTLNISRVEAEDLGIYYCFQGSYVPLTFGAGTKLELK
VH: DVQLVESGGGLVQPGGSRKLSCAASGFTFSSFGMHWVRQAPEKGLEWVAYINGGSSTIFYANAVKGRFTISRDNPKNTLFLQMTILRSEDTAIYYCGRYASYGGGAMDYWGQGTSVTVSS
B3: m166-43B6: mouse monoclonal antibody from hybridoma raised against Concanovalin A-activated human T-cells; induces T-cell apoptosis (antibody, V domains shown)
VL: ENVLTQSPAIMSASPGEKVTMTCRASSTVNSTYLHWFQQKSGASPKLWIYGSSNLASGVPARFSGSGSGTSYSLTISSVEAEDAATYYCQQYSGYPLTFGAGTTLELK
VH: EVQLQQSGPDLVKPGALVKISCKASGYSFTAYYIHWVKQSHGKSLEWIGRVNPNTGGTSYNPKFKGKAILNVDKSSSTAYMELRSLTSEDSAVYYCARSGSPYYRYDDWGQGTTLTVSS

What was measured:
[1] = tested on: in vitro activated human T-cells; test: Induction of death of activated human T-cells by monoclonal antibodies (annexin V staining, FACS, CD3-positive gated); type: cell-based; conditions: for Percentage of apoptotic T-cells: Day 7, in vitro activated human T-cells, hybridoma culture supernatant, 6 hours, annexin V positive among CD3-positive cells; for percentage of in vitro activated T-cells undergoing apoptosis compared to that of untreated cells: annexin V staining and FACS analysis; for induction of death (apoptosis) of in vitro activated human T-cells: result in words
Procedure: Activated T cells (see above) were resuspended to a final concentration of 5×10^5 cells/ml in RPMI medium containing 5 ng/ml of IL-2, and treated with control Ig, m128-9F9, m152-15A7, or m166-43B6.
(§1) It is well known that T-cell death-inducing antibodies can be used as therapeutic agents to treat T-cell-related diseases such as transplantation rejections, autoimmune diseases, and allergy. Three monoclonal antibodies against human T-cells were generated, and the capabilities of these monoclonal antibodies to induce apoptosis of activated human T-cells were examined. Culture supernatants containing monoclonal antibodies secreted by hybridoma cell line m128-9F9, m152-15A7, or m166-43B6 were incubated with either non-activated human T-cells (Day 0) or in vitro activated human T-cells (Day7) for 6 hours. Cells were stained with annexin V after incubation, and subjected to FACS analysis. CD3-positive cells were gated to ensure counting of either in vitro activated human T-cells or resting human T-cells. The apoptotic cells were annexin V staining-positive. […] This capability of inducing apoptosis of activated T-cells yet sparing the resting T-cells is a unique feature of the apoptotic pathway and is a dominating feature of therapeutic reagents targeting T-cell-mediated diseases.

[2] = tested on: non-activated human T-cells; test: Apoptosis of non-activated (resting) human T-cells with monoclonal antibodies (annexin V staining, FACS, CD3-positive gated); type: cell-based; conditions: for Percentage of apoptotic T-cells: Day 0, non-activated human T-cells, hybridoma culture supernatant, 6 hours, annexin V positive among CD3-positive cells; for effect on non-activated human T-cells: result in words
From the text: as §1

Molecule | Percentage of apoptotic T-cells [1] | percentage of in vitro activated T-cells undergoing apoptosis compared to that of untreated cells [1] | induction of death (apoptosis) of in vitro activated human T-cells [1] | Percentage of apoptotic T-cells [2] | effect on non-activated human T-cells [2]
B1 | 28.71% | about doubled | able to induce T-cell apoptosis in vitro; also recorded: induced death of in vitro activated human T-cells | 5.82% | did not affect non-activated human T-cells
B2 | 51.66% | about doubled | able to induce T-cell apoptosis in vitro; also recorded: induced death of in vitro activated human T-cells | 5.23% | did not affect non-activated human T-cells
B3 | 49.44% | about doubled | able to induce T-cell apoptosis in vitro; also recorded: induced death of in vitro activated human T-cells | 6.57% | did not affect non-activated human T-cells
